B1: 224-Hu7 (antibody, V domains shown)
VH: QVQLVQSGSELKKPGASVKVSCKASGFNNKDIYMHWVRQAPGQGLEWMGRIDPATGNTKHDPKFQDKAVLSSDTSVSTAYLQISSLKAEDTAVYYCARSPYGDFGAMDYWGQGTLVTVSS
VL: DIQMTQSPSSLSASVGDRVTITCTASSSVSSNYLHWYQQKPGKAPKLLIYSTSNLPSGVPSRFSGSGSGTDFTLTISSLQPEDFATYYCHQYHRSPWTFGQGTKVEIK
notes: Humanized form of #224; also called VH9 + VL10
B2: 224-Hu4 (antibody, V domains shown)
VH: B1 VH
VL: B1 VL with L48W
notes: Humanized form of #224; also called VH9 + VL6
B3: 224-Hu2 (antibody, V domains shown)
VH: B1 VH
VL: B1 VL with K43S, A44S, L48W
notes: Humanized form of #224; also called VH9 + VL7
B4: 224-Hu5 (antibody, V domains shown)
VH: B1 VH
VL: B1 VL with F72Y, T73S
notes: Humanized form of #224; also called VH9 + VL9
B5: 224-Hu3 (antibody, V domains shown)
VH: B1 VH
VL: B1 VL with P81A, F84A
notes: Humanized form of #224; also called VH9 + VL8

Numbering of substitutions follows the chain as printed.

For the first test, the target named is T1, human TNFR2 on the surface of CHO-TNFR2 cells (human, UniProt P20333 23-461).
T1 construct: whole, on cells
T1 sequence (looked up): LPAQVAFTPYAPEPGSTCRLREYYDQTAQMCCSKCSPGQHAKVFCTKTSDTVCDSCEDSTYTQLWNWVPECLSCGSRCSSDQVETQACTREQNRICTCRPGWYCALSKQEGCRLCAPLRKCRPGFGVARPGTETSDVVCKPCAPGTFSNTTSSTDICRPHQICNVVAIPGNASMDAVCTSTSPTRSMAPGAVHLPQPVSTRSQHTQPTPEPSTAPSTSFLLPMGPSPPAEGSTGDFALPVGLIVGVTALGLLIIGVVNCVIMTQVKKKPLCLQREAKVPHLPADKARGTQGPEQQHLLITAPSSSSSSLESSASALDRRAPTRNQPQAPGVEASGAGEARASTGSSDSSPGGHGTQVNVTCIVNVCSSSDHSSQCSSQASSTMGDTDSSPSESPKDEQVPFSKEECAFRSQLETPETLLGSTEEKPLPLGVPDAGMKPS
The test is described as follows: competition flow cytometry on CHO-TNFR2 cells, competitor human TNFα-biotin. The method, then: CHO stable cells highly expressing human TNFR2 were used for the experiment (the same as CHO-TNFR2 in Example 4). The CHO-TNFR2 cells were digested, washed twice with DPBS, then stained with Live/Dead (L/D) (20 minutes at room temperature), and plated at a density of 1×10⁵ cells/50 μl/well. A test anti-TNFR2 antibody was diluted to 6 μg/ml with a staining buffer as the starting concentration: the antibody was subjected to 3.33-fold gradient dilution, with a total of 7 concentration points. The diluted antibody was added to the plated cells at 50 μl/well, and the mixture was mixed well by gentle pipetting, and incubated at 4° C. for 30 minutes. Then the diluted 100 ng/ml of human TNFα-biotin was added at 100 μl/well, and the mixture was mixed well by gentle pipetting, and then incubated at 4° C. for 30 minutes. The mixture was washed twice with a staining buffer, and then 0.12 μg/ml PE-streptavidin (BioLegend, Cat #405204) was added at 100 μl/well; the resulting mixture was incubated at 4° C. for 30 minutes. The mixture was washed twice with a staining buffer, and then 150 μl of staining buffer was added to resuspend the cells; signals were detected by a flow cytometer (Thermo Attune NxT). The inhibitory curve of an antibody was drawn with antibody concentration as the abscissa and corresponding MFI value as the ordinate, and fitted with four parameters (GraphPad Prism9) to calculate the IC50 value. The smaller the IC50 value, the stronger the ability of an antibody to inhibit the binding of human TNFα to human TNFR2. The blocking effect of a humanized antibody was normalized to its corresponding human-murine chimeric WT antibody. The higher the percentage value, the better the inhibitory effect of the humanized antibody.
B1: the IC50 amounted to 65 ng/mL.
Same read-out and setting: the same measure for B2: 58 ng/mL.
As for B3, the IC50 was 36 ng/mL.
For the molecule B4, the IC50 stood at 62 ng/mL.
In the case of B5, the IC50 is 44 ng/mL.

Another test has as its target T1, human TNFR2 on the surface of CHO-TNFR2 …. The test is described as follows: flow cytometry on CHO-TNFR2 cells. How it is done: The transfected full-length plasmid of human TNFR2 was purchased from Sino Biological (Cat #HG10417-UT, NCBI Ref Seq: NM_001066.2). The experiment was conducted at a cell density within 80%. The cell medium was discarded; the cells were rinsed with PBS, and digested with 1 ml trypsin for 2 minutes; the digestion was stopped with a Ham's F12 complete medium containing 10% FBS, and then a cell suspension was made. The cell suspension was counted, and then an appropriate amount of cell suspension was centrifuged at 350×g; the supernatant was discarded; a corresponding volume of blocking solution (10% FBS+PBS) at a density of 1×10⁷ cells/ml was added to resuspend the cells, and the mixture was incubated at 4° C. for 30 minutes. After the incubation, the mixture was centrifuged at 350×g to remove the supernatant, and the cells were resuspended in a staining buffer (2% FBS+PBS) to a density of 2×10⁶ cells/ml, and spread onto a 96-well plate, with 50 μl of cell suspension added to each well for later use. The antibody was diluted with PBS for 10-fold gradient dilution from the highest concentration of 20 μg/m (twice the concentration); the diluted antibody was added to the well containing 50 μl of cell suspension, and placed on a microplate shaker for shaking at 500 rpm for 1 minute, so that the antibody was fully mixed with the cells; the mixture was incubated at 4° C. for 1 h. After the incubation, the cells were washed twice with the staining buffer, with 100 μl per well, and centrifuged at 350-g for 5 minutes, and the supernatant was discarded. The PE goat anti-Human IgG Fc antibody (ebioscience, Cat #12-4998-82) was diluted 250-fold with the staining buffer, with a volume of 100 μl per well added to the washed cell wells; the mixture was mixed evenly, and stained at 4° C. for 30 minutes. After the staining, similarly, the cells were washed twice with the staining buffer; finally, the cells were resuspended in 200 μl of staining buffer; signals were detected by a flow cytometer (Thermo Attune NxT). The stronger the signal, the stronger the binding ability of an antibody to TNFR2. The binding curve of an antibody was drawn with antibody concentration as the abscissa and corresponding mean fluorescence intensity (MFI) fold as the ordinate, and fitted with four parameters (GraphPad Prism9) to calculate the EC50 value.
As to B1, the concentration giving a half-maximal response (EC50) was 0.03 ng/mL.
For the molecule B2, the concentration for a half-maximal effect (EC50) was found to be 0.03 ng/mL.
The same measure, in the same setting: for B3 the value was 0.03 ng/mL; for B4, 0.04 ng/mL.
B5: the response was half-maximal at 0.03 ng/mL (EC50).

The target of another test is T2, Cynomolgus TNFR2-His (Sino 90102-C08H) (cynomolgus monkey, UniProt A0A2K5VET2 132-366).
T2 construct: Bought protein; also called cynomolgus monkey TNFR2; recombinant cynomolgus monkey TNFR2 protein; not shown: His tag
T2 sequence: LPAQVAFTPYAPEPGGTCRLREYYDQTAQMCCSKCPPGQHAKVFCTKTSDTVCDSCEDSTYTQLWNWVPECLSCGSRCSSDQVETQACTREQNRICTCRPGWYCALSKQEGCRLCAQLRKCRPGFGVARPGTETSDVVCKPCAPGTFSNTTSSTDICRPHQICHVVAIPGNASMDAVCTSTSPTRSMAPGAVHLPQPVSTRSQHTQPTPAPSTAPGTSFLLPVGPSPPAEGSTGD
Briefly: SPR (Biacore T200), antibody captured on Protein A chip. In outline: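 Anti-TNFR2 antibody was captured on a Protein A chip to give Rmax of 50 RU, then TNFR2 was injected at graded concentrations in multi-cycle kinetics. Glycine pH 1.5 regenerated the surface between cycles; KD was obtained by fitting.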
For B1, the Kd came to 3.12 nM, the koff turned out to be 0.000991 s⁻¹ and the on-rate constant (kon) is 318000 M⁻¹ s⁻¹.
In the case of B2, binding was put at a Kd of 3.17 nM, the off-rate constant (koff) turned out to be 0.000881 s⁻¹ and the kon is 278000 M⁻¹ s⁻¹.
Take B3: binding was characterised by a dissociation constant (Kd) of 2.95 nM, the off-rate constant (koff) is 0.000835 s⁻¹ and the association rate constant (kon) came out at 283000 M⁻¹ s⁻¹.
With B4, the Kd stood at 3.31 nM, the koff was 0.000828 s⁻¹ and the kon was 250000 M⁻¹ s⁻¹.
In the same order, the values of B5 are 2.97 nM, 0.000847 s⁻¹ and 285000 M⁻¹ s⁻¹.

Values taken from patent US20240109974A1 (SHANDONG SIMCERE BIOPHARMACEUTICAL, published 2024).
